IntAct's records for PubMed 16885985

B1: Merlin (Homo sapiens), P35240 (parent)
chain: MAGAIASRMSFSSLKRKQPKTFTVRIVTMDAEMEFNCEMKWKGKDLFDLVCRTLGLRETWFFGLQYTIKDTVAWLKMDKKVLDHDVSKEEPVTFHFLAKFYPENAEEELVQEITQHLFFLQVKKQILDEKIYCPPEASVLLASYAVQAKYGDYDPSVHKRGFLAQEELLPKRVINLYQMTPEMWEERITAWYAEHRGRARDEAEMEYLKIAQDLEMYGVNYFAIRNKKGTELLLGVDALGLHIYDPENRLTPKISFPWNEIRNISYSDKEFTIKPLDKKIDVFKFNSSKLRVNKLILQLCIGNHDLFMRRRKADSLEVQQMKAQAREEKARKQMERQRLAREKQMREEAERTRDELERRLLQMKEEATMANEALMRSEETADLLAEKAQITEEEAKLLAQKAAEAEQEMQRIKATAIRTEEEKRLMEQKVLEAEVLALKMAEESERRAKEADQLKQDLQEAREAERRAKQKLLEIATKPTYPPMNPIPAPLPPDIPSFNLIGDSLSFDFKDTDMKRLSMEIEKEKVEYMEKSKHLQEQLNELKTEIEALKLKERETALDILHNENSDRGGSSKHNTIKKLTLQSAKSRVAFFEEL
partner: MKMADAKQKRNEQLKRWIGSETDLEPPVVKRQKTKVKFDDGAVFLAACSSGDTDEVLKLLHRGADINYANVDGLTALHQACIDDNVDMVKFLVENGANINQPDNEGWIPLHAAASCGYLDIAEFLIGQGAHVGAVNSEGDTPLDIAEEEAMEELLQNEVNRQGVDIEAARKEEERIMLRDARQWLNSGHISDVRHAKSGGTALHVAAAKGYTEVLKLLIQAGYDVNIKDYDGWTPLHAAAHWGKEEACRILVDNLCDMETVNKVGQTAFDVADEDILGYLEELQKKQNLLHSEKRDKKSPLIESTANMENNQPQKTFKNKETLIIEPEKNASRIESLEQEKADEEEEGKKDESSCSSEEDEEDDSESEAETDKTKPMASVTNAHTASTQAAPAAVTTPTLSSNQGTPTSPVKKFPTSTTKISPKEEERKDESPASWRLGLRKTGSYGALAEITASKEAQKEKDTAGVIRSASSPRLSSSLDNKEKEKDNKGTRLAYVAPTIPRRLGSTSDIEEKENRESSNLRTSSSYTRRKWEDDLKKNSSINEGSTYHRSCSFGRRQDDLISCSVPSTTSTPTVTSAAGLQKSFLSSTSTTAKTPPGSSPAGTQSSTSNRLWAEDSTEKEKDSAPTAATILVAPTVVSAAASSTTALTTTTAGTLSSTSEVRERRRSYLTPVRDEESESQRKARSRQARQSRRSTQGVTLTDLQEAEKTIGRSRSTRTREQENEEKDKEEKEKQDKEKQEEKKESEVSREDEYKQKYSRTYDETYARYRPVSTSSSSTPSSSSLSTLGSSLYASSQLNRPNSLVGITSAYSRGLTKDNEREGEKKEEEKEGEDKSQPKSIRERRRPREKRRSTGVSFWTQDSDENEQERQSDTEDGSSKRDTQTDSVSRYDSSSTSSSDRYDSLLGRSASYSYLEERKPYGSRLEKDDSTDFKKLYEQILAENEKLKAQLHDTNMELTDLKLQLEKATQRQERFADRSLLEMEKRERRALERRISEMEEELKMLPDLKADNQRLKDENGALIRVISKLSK

Variants of: B1
Settings: with mypt1_rat Ppp1r12a

Row | effect of a mutation on the interaction | Variant
1 | decreasing interaction | S518A
